Values of other authors in patent US10906951B2, “Modified natural killer cells and natural killer cell lines having increased cytotoxicity” (ONK THERAPEUTICS LIMITED, priority 2015, dated 2021).

B1: N199R: TRAIL DR4 variant, WO 2009/066174 (protein, UniProt P50591 1-281, looked up, variant N199R)
Tumor necrosis factor ligand …: MAMMEVQGGPSLGQTCVLIVIFTVLLQSLCVAVTYVYFTNELKQMQDKYSKSGIACFLKEDDSYWDPNDEESMNSPCWQVKWQLRQLVRKMILRTSEETISTVQEKQQNISPLVRERGPQRVAAHITGTRGRSNTLSSPNSKNEKALGRKINSWESSRSGHSFLSNLHLRNGELVIHEKGFYYIYSQTYFRFQEEIKERTKNDKQMVQYIYKYTSYPDPILLMKSARNSCWSKDAEYGLYSIYQGGIFELKENDRIFVSVTNEHLIDMDHEASFFGAFLVG
B2: N199R/K201H: TRAIL DR4 variant, WO 2009/066174 (protein, UniProt P50591 1-281, looked up, variant N199R K201H)
Tumor necrosis factor ligand …: MAMMEVQGGPSLGQTCVLIVIFTVLLQSLCVAVTYVYFTNELKQMQDKYSKSGIACFLKEDDSYWDPNDEESMNSPCWQVKWQLRQLVRKMILRTSEETISTVQEKQQNISPLVRERGPQRVAAHITGTRGRSNTLSSPNSKNEKALGRKINSWESSRSGHSFLSNLHLRNGELVIHEKGFYYIYSQTYFRFQEEIKERTHNDKQMVQYIYKYTSYPDPILLMKSARNSCWSKDAEYGLYSIYQGGIFELKENDRIFVSVTNEHLIDMDHEASFFGAFLVG
B3: G131R/N199R/K201H: TRAIL DR4 variant, WO 2009/066174 (protein, UniProt P50591 1-281, looked up, variant G131R N199R K201H)
Tumor necrosis factor ligand …: MAMMEVQGGPSLGQTCVLIVIFTVLLQSLCVAVTYVYFTNELKQMQDKYSKSGIACFLKEDDSYWDPNDEESMNSPCWQVKWQLRQLVRKMILRTSEETISTVQEKQQNISPLVRERGPQRVAAHITGTRRRSNTLSSPNSKNEKALGRKINSWESSRSGHSFLSNLHLRNGELVIHEKGFYYIYSQTYFRFQEEIKERTHNDKQMVQYIYKYTSYPDPILLMKSARNSCWSKDAEYGLYSIYQGGIFELKENDRIFVSVTNEHLIDMDHEASFFGAFLVG
B4: N199H/K201R: TRAIL DR4 variant, WO 2009/066174 (protein, UniProt P50591 1-281, looked up, variant N199H K201R)
Tumor necrosis factor ligand …: MAMMEVQGGPSLGQTCVLIVIFTVLLQSLCVAVTYVYFTNELKQMQDKYSKSGIACFLKEDDSYWDPNDEESMNSPCWQVKWQLRQLVRKMILRTSEETISTVQEKQQNISPLVRERGPQRVAAHITGTRGRSNTLSSPNSKNEKALGRKINSWESSRSGHSFLSNLHLRNGELVIHEKGFYYIYSQTYFRFQEEIKEHTRNDKQMVQYIYKYTSYPDPILLMKSARNSCWSKDAEYGLYSIYQGGIFELKENDRIFVSVTNEHLIDMDHEASFFGAFLVG
B5: G131R/R149I/S159R/S215D: 4C9, a DR4-specific TRAIL variant; DNA sequence SEQ ID NO: 14 (protein, listed as Homo sapiens)
chain: MAMMEVQGGPSLGQTCVLIVIFTVLLQSLCVAVTYVYFTNELKQMQDKYSKSGIACFLKEDDSYWDPNDEESMNSPCWQVKWQLRQLVRKMILRTSEETISTVQEKQQNISPLVRERGPQRVAAHITGTRRRSNTLSSPNSKNEKALGIKINSWESSRRGHSFLSNLHLRNGELVIHEKGFYYIYSQTYFRFQEEIKENTKNDKQMVQYIYKYTDYPDPILLMKSARNSCWSKDAEYGLYSIYQGGIFELKENDRIFVSVTNEHLIDMDHEASFFGAFLVG
B6: G131R/N199R/K201H/R149I/S159R/S215D: TRAIL DR4 variant, WO 2009/066174 (protein, UniProt P50591 1-281, looked up, variant G131R N199R K201H R149I S159R S215D)
Tumor necrosis factor ligand …: MAMMEVQGGPSLGQTCVLIVIFTVLLQSLCVAVTYVYFTNELKQMQDKYSKSGIACFLKEDDSYWDPNDEESMNSPCWQVKWQLRQLVRKMILRTSEETISTVQEKQQNISPLVRERGPQRVAAHITGTRRRSNTLSSPNSKNEKALGIKINSWESSRRGHSFLSNLHLRNGELVIHEKGFYYIYSQTYFRFQEEIKERTHNDKQMVQYIYKYTDYPDPILLMKSARNSCWSKDAEYGLYSIYQGGIFELKENDRIFVSVTNEHLIDMDHEASFFGAFLVG

Biological target: DR4 (Homo sapiens, UniProt O00220)
Conditions: in words; known from WO 2009/066174, MacFarlane 2005; cited from earlier work

Affinity for DR4, increased affinity for DR4:
B1, B2, B3, B4, B5, B6
